The target of the experiment is C. trachomatis PmpD fragment D^269–918, His-tagged (C. trachomatis serovar E) (UniProt O84818). The experiment in a line: native gel or EMSA; Blue Native-PAGE (Native PAGE Novex 3–12% Bis-Tris), 1 μg of each renatured His-tagged Pmp fragment alone; Coomassie staining and anti-His immunoblot. In general terms: Mobility shift assays separate free from complexed probe on a gel.

On to “C. trachomatis PmpD fragment D^269–918, His-tagged (from UniProt O84818 269-918) (domain or fragment)”, for which the stoichiometry N (usually the number of molecules, sites or subunits per partner or assembly) came to 2.
